According to patent publication US20190194358A1 (ARIZONA BOARD OF REGENTS A BODY CORPORATE OF THE STATE OF …, published 2019):
Ends that are not written are not given here.

What was measured:
Fbox-21 = target: T1, Fbox-21 (human, UniProt O94952 1-628); experiment: human protein microarray (Protoarray), fluorescence intensity
T1 construct: GST fusion adsorbed on a nitrocellulose slide
T1 sequence (looked up): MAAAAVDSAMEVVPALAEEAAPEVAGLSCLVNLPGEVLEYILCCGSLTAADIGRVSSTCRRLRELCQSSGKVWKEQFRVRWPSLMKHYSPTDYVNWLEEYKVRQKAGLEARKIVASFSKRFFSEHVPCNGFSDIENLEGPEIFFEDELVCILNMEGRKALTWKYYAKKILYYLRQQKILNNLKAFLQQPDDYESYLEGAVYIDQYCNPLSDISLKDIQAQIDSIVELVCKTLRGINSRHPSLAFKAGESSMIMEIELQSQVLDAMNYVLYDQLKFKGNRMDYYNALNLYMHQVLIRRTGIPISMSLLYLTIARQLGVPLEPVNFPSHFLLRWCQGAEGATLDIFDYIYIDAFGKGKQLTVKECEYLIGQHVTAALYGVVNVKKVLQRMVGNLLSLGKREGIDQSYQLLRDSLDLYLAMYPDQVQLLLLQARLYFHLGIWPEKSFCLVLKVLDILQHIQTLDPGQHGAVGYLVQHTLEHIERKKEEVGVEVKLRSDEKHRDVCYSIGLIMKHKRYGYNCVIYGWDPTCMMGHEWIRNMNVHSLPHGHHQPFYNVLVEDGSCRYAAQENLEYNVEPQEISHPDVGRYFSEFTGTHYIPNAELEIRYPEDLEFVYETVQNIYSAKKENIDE
Protocol: (§1) The prescribed cover slip was placed over the array and adjusted to remove air bubbles. The array was incubated in a 50 ml conical tube, printed side up, for 1.5 hours at 4 C without shaking. The array was then removed from the conical tube inserted diagonally into the array chamber, kept on ice. 8 ml probing buffer was added to the chamber wall. The cover slip was removed and the array was incubated in probing buffer for 1 minute on ice. The probing buffer was decanted and drained. Two further washings were performed adding 8 ml probing buffer, incubating on ice for 1 minute, and decanting and draining. 5 nM fluorescently labeled streptavidin diluted in 6 ml probing buffer was incubated on the array for 30 minutes on ice in the dark, after which the solution was decanted and drained. Three wash steps were performed, each by adding 8 ml probing buffer, incubating for 1 minute on ice, decanting, and draining. The array was removed from the chamber, centrifuged at 800×g for 5 minutes at room temperature. The array was dried in the dark for 60 minutes at room temperature, after which it was scanned using a fluorescent microarray scanner and data was taken and analyzed.

GRP58 = target: T2, GRP58 (human, UniProt P30101 25-505, limits assumed); experiment: as above
T2 construct: GST fusion adsorbed on a nitrocellulose slide
T2 sequence (looked up): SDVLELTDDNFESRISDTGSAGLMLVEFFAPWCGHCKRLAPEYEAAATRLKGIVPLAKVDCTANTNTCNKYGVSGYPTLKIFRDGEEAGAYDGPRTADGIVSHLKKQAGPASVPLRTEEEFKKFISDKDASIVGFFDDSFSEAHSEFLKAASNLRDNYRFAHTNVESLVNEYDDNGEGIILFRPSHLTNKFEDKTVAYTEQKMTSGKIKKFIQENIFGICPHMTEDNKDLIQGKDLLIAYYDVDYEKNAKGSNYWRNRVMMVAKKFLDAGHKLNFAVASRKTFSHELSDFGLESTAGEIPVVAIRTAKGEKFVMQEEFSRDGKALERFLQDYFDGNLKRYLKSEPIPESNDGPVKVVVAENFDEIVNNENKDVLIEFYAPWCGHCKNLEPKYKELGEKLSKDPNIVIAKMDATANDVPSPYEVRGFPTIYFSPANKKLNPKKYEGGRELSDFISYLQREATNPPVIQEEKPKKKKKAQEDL
Protocol: as §1

CHAF1B = target: T3, CHAF1B (human, UniProt Q13112); experiment: Invitrogen ProtoArray Human Protein Microarray v4.0; biotinylated synbody, fluorescently labelled streptavidin; fluorescence intensity above background
T3 construct: GST fusion on the array
Protocol: as §1

ACTC = target: T4, ACTC (human, UniProt P68032); experiment: as above
T4 construct: GST fusion on the array
Protocol: as §1

MCCC1 = target: T5, MCCC1 (human, UniProt Q96RQ3); experiment: as above
T5 construct: GST fusion on the array
T5 sequence (looked up): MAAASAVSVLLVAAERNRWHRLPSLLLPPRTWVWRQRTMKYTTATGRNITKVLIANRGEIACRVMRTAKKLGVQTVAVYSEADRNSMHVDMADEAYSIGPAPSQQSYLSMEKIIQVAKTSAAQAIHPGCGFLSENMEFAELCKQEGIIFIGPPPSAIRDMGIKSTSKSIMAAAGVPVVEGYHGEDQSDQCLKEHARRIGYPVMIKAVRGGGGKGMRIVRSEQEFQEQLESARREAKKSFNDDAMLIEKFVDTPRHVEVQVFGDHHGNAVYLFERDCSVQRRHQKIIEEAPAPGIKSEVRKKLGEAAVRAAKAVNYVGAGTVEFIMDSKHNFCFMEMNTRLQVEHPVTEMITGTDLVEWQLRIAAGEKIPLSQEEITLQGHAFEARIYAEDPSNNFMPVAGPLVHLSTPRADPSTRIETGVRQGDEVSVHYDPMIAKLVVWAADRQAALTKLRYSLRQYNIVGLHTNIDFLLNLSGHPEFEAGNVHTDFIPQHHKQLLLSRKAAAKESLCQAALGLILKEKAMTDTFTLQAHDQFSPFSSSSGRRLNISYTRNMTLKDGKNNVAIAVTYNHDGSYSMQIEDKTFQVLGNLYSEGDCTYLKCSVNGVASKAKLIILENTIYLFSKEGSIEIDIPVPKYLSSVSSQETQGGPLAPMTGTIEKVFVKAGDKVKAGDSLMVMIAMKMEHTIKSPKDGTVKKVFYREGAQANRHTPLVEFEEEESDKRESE
Protocol: as §1

CLEC1 = target: T6, CLEC1 (human, UniProt Q8NC01); experiment: as above
T6 construct: GST fusion on the array
T6 sequence (looked up): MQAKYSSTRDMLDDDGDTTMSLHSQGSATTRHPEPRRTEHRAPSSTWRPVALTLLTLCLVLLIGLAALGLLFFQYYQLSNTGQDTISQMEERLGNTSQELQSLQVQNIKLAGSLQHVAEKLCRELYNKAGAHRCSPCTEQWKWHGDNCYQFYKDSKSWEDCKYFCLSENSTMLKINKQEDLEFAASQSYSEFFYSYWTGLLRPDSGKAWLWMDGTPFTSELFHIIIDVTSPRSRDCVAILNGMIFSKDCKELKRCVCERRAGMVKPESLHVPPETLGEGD
Protocol: as §1

HTN1 = target: T7, HTN1 (human, UniProt P15515, limits assumed); experiment: as above
T7 construct: GST fusion on the array
T7 chain (looked up): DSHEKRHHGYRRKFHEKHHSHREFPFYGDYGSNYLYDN
Protocol: as §1

AKT1 = target: T8, AKT1 (human, UniProt P31749 1-480, limits assumed); experiment: SPR
T8 construct: GST fusion on the Protoarray; also called AKT1_HUMAN; human AKT1

transferrin = target: T9, transferrin (human, UniProt P02787 20-698); experiment: SPR
T9 construct: also called TRF; pooled human transferrin (Sigma)

ROCK2 = target: T10, ROCK2 (human, UniProt O75116); experiment: Invitrogen ProtoArray Human Protein Microarray v4.0; biotinylated synbody, fluorescently labelled streptavidin; fluorescence intensity above background
T10 construct: GST fusion on the array
Protocol: as §1

PRKAA1 = target: T11, PRKAA1 (human, UniProt Q13131); experiment: as above
T11 construct: GST fusion on the array
T11 sequence (Q13131 whole entry, the tested form may be a part): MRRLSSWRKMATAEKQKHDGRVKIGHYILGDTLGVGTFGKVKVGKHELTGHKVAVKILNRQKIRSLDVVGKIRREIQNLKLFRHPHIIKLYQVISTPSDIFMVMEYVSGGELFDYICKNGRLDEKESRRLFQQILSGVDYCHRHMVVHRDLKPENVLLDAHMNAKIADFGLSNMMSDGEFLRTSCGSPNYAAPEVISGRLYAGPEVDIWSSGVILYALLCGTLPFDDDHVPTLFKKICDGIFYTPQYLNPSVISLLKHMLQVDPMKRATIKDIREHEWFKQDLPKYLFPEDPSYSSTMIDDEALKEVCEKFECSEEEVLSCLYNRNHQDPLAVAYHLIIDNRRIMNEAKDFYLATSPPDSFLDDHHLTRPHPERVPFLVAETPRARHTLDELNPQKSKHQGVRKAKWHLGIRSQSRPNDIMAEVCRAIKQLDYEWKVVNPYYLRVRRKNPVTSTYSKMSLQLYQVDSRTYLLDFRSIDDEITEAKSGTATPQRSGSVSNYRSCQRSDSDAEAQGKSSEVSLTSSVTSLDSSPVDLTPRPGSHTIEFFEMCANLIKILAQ
Protocol: as §1

T3 sequence (Q13112 whole entry, the tested form may be a part): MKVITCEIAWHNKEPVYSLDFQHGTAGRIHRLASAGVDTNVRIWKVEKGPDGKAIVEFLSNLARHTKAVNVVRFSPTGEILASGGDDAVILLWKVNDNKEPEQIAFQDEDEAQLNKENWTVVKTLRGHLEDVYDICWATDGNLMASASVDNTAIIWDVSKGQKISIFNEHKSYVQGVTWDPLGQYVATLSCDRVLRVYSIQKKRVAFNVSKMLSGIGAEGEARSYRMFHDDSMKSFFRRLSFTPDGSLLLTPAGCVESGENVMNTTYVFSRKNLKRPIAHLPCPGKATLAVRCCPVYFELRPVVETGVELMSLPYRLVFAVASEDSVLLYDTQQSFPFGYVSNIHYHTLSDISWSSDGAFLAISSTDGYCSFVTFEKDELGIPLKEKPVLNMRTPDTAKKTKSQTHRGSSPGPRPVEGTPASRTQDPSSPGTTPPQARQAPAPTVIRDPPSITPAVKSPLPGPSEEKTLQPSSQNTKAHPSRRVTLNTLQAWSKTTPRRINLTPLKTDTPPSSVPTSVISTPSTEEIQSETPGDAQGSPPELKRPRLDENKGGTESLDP
T8 sequence (P31749 whole entry, the tested form may be a part): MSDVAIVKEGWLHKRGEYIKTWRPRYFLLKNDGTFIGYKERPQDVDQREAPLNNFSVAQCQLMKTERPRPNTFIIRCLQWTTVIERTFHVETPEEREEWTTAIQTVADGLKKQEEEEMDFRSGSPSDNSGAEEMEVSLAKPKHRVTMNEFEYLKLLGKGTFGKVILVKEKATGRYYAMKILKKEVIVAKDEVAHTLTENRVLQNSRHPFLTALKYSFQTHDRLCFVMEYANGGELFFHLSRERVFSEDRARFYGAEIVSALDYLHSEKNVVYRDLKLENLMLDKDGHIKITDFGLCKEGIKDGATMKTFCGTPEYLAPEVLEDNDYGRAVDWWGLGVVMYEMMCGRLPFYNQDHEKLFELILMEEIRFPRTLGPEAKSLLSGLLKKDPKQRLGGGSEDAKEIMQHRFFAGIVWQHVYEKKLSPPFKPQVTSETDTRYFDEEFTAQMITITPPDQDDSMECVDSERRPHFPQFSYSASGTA
T10 sequence (O75116 1-552 limits assumed): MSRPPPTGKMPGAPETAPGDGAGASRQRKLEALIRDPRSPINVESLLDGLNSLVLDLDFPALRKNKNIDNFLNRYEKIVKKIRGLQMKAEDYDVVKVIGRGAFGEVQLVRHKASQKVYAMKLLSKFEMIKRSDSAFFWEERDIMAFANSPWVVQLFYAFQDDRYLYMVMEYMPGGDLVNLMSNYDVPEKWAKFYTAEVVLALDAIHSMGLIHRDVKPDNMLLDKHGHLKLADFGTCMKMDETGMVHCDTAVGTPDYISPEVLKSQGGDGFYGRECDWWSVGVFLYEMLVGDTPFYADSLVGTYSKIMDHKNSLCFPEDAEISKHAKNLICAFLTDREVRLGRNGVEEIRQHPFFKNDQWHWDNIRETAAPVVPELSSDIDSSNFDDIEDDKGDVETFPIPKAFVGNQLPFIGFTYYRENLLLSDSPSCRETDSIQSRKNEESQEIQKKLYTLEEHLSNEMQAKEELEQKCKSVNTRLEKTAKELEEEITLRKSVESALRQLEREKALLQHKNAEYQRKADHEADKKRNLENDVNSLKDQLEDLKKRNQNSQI
T9 sequence (P02787 20-698 limits assumed): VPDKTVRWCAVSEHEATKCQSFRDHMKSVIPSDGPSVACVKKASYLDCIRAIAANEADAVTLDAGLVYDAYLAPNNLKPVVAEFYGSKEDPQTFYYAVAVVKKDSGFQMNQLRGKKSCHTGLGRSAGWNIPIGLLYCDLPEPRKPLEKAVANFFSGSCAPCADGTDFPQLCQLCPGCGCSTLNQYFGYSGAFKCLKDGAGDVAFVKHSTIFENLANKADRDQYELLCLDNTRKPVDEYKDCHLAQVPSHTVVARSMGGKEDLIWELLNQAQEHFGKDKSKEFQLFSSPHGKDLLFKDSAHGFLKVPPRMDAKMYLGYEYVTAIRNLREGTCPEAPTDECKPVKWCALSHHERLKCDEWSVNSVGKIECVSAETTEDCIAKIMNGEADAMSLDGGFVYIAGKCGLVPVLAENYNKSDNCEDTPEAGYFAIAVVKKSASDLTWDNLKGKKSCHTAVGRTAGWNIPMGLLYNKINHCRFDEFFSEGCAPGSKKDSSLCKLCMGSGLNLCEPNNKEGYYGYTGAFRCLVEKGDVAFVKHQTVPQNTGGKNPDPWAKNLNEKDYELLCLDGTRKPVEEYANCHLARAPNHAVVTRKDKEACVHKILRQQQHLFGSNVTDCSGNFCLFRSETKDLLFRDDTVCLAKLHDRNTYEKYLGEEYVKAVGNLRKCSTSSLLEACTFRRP

- binding result (Fbox-21): binds
- binding result (GRP58): binds
- binding result (CHAF1B): binds
- binding result (ACTC): binds
- binding result (MCCC1): binds
- binding result (CLEC1): binds
- binding result (HTN1): binds
- Kd (AKT1): ~1 nM
- Kd (transferrin): ~141 nM
- binding result (ROCK2): no binding
- binding result (PRKAA1): no binding
B1: SYN23-26 (designed binder)
peptide 1: AHKVVPQRQIRHAYNRYGSG
peptide 2: FRGWAHIFFGPHVIYRGGSG
modifications: also: two chains joined by their C-termini to a branching Lys (epsilon/alpha N), Lys linker followed by Cys, Cys thiol biotinylated
notes: Lysine linker followed by cysteine; the thiol of the cysteine biotinylated for the protein array; also called anti-TRF synbody
